Data published in patent publication US20090208453A1 (NURON BIOTECH, published 2009).

Molecular target: T1, recombinant human interferon-alpha/beta R2 receptor Fc chimera (R&D Systems, Product 4015-AB) (human, UniProt P48551 27-243)
T1 construct: Bought reagent, coated onto ELISA plates; also called rhIFN-R2 Fc; Fc part of the bought chimera not given
T1 sequence (looked up): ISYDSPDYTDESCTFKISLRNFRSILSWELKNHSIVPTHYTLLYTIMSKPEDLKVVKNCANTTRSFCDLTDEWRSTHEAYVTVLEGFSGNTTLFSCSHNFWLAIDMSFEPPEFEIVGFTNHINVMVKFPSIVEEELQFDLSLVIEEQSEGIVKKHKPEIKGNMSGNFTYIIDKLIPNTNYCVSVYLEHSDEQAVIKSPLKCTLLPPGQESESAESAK
Assay: Receptor binding (competition): displacement of 125I-IFN-alpha from plate-coated rhIFN-R2 Fc; untreated and RP-HPLC-purified samples
Procedure: Receptor binding competition assays were performed using purified rhIFN-beta1b from Bar 25 protein and BETASERON, and unprocessed Bar 25 protein and BETASERON. The assay was performed using the recombinant human interferon-alpha/beta R2 receptor Fc (rhIFN-R2 Fc) chimera (R&D Systems, Product 4015-AB). This receptor binds both interferon-alpha and interferon-beta. ¹²⁵I-human interferon-alpha (¹²⁵I-IFN-alpha) was used as the competing reagent to avoid potential effects of radiolabeling on the rhIFN-beta1b products. rhIFN-R2 Fc was coated onto ELISA plates and ¹²⁵I-IFN-alpha was added at a fixed concentration to each well. […] Unlabeled IFN-alpha was used as a control. The amount of ¹²⁵I-IFN-alpha remaining bound to rhIFN-R2 Fc after the competition was measured and plotted as a function of the rhIFN-beta1b concentration. The resulting curves for each product and purified rhIFN-beta1b sample were compared.

binding result: binds
B1: Bar 25 protein (recombinant human interferon beta-1b, C17S IFN-beta-1b, refolded under high pressure) (ligand)
chain: SYNLLGFLQRSSNFQSQKLLWQLNGRLEYCLKDRMNFDIPEEIKQLQQFQKEDAALTIYEMLQNIFAIFRQDSSSTGWNETIVENLLANVYHQINHLKTVLEEKLEKEDFTRGKLMSSLHLKRYYGRILHYLKAKEYSHCAWTIVRVEILRNFYFINRLTGYLRN
notes: Non-glycosylated, expressed in E. coli; It was tested untreated and after RP-HPLC/SEC-HPLC isolation; The research-grade material was partially deamidated; also called rhIFN beta-1b; rhIFN-beta1b
